Measurements from patent US5686073.

B1: 50 kDa dystrophin-associated glycoprotein (protein)
chain: GPGGTEAQQTTLYPLVGRVFVHTLEPASFLHLPEHAAPATIPVTYHAHLQGHPDLPRWLRYTQRSPHHPGFLYGAATPEDRGRQVIEVTAYNRDSFDTAGQSLVLLIRDPEGSPLPYQTEFLVRSHDVEEVLPPTPASHFLTALAGLWEPGELKLLNITSALDRGGRVPLPIGGQKEGVYIKVGSASPFSTCLKMVASPDSHARCARGQPPLLSCYDTLAPHFRVDWCNVSLVDTSVPEPVDEVPTPGDGILEHDPFFCPPTEATARDFLADALVTLLVPLLVALLLALLLAYIMCCRREGRLKRDLATSDIQMVHHCTIHENTEELRQMAASREVPRPLFPLPMFNVRTGERMPPRVDSAQVPLILDQH

Assays:
[1] = biological target: 50 kDa dystrophin-associated glycoprotein (rabbit); assay: co-immunoprecipitation with the 50 kDa glycoprotein on IVD31-Sepharose from untreated complex
dystrophin (rabbit) [2] = assay: co-immunoprecipitation with dystrophin on XIXC2-Sepharose from untreated complex
dystrophin (rabbit) [3] = assay: co-immunoprecipitation with dystrophin on XIXC2-Sepharose from alkaline-treated complex
[4] = biological target: 50 kDa dystrophin-associated glycoprotein (rabbit); assay: co-immunoprecipitation with the 50 kDa glycoprotein on IVD31-Sepharose from alkaline-treated complex

Molecule | percent immunoprecipitated [1] | percent immunoprecipitated (dystrophin (rabbit) [2]) | percent immunoprecipitated (dystrophin (rabbit) [3]) | percent immunoprecipitated [4]
dystrophin | 99% |  |  | 
59 kDa dystrophin-associated protein | 96% | 96% | 51% | 
35 kDa dystrophin-associated glycoprotein | 96% | 96% |  | 96%
156 kDa dystrophin-associated glycoprotein (from UniProt Q28685) | 85% | 63% |  | 
43 kDa dystrophin-associated glycoprotein (from UniProt Q28685) | 96% | 96% |  | 96%
B1 |  | 96% |  | 
